Data published in article doi:10.1101/2022.03.30.486377 (bioRxiv, 2022).

Experiments:
Experiment in all cases: ELISA
[1] = biological target: SARS-CoV-2 S2 PentaPro in prefusion conformation (SARS-CoV-2, Wuhan-Hu-1 sequence, UniProt P0DTC2, stabilised)
[2] = biological target: SARS-CoV-2 S2 in postfusion conformation (SARS-CoV-2 (D614G ectodomain; D614G …, UniProt P0DTC2, strain)
[3] = biological target: SARS-CoV-2 S PentaPro (F817), prefusion S trimer (SARS-CoV-2, Wuhan-Hu-1 sequence, UniProt P0DTC2, stabilised)

Measured: binding result

B1: C77G12 mAb (antibody, V domains shown)
VH: EVQLVESGGGVVQPGRSLRISCAVSGFTFGSYAMHWVRQAPGKGLEWVGVMSSDGHNEYYADSVKGRFTISRDNSRNKLYLEMNNLRVDDTAVFYCARGSDYVDDSPPLHYWGQGTLVTVSS
VL: DIQLTQSPSSLSASIGDRVTITCRASQDIANKLAWFQQAPGKAPKSLIYAASRLQSGVPSQFSGSGSGTDFTLTIESLQAGDFATYFCQQYDSFPFTFGPGTKVDVK
binds: all assays above

B2: VN01H1 mAb (antibody, V domains shown)
VH: EVQLVESGGGLVLPGGSLRLSCSASGFTFSDFSMHWVRQSPGKGLEYVSAITSSGSSTYYPDSVKGRFTISRDNSKNTLYLQMGSLRVEDTAVYWCVKNSDVFRFPHLYFDVWGRGTLVTVSS
VL: not shown
binds: all assays above

B3: C13B8 mAb (antibody, V domains shown)
VH: QVQLQESGPGLVQPSQTLTLTCTVSGDSISNEDYHWTWIRQHPGKGLEWMGYLQYSGNTNYNPSLKSRMTISVDTSKNQFSLRLNSVTAADTAVYFCATSIVLTGMSNKIQPFDYWGQGTLVTVSS
VL: SYELTQPPSVSVSPGQMARITCSGEALPKKYAYWYQQKGGQFPVLVIYKDTERPSGIPERFSGSSSGTIVTLTISGVQPEDEADYYCLSADTSGTWVFGGGTKLTVL
binds: all assays above

B4: C13C9 mAb (antibody, V domains shown)
VH: EVQLVQSGPEVKKPGTSARVSCKASGFTSKNTALQWVRQARGQPLEWMGWIDISNYITNYAQKFRGRLTITWDLSASMAYMELSSLRSEDTAVYYCAAVGKDDDVLTGGNKYFDHWGQGTLVTVSS
VL: SYELTQPPSVSVSPGQTARITCSGDALPKKYAYWYQQKSGQAPVLVIHEDDKRPSGIPGRFSASSSGTTATLTISGAQVEDEADYYCYSTDTNDNHAFGSGTKLTVL
binds: all assays above

B5: VP12E7 mAb (antibody, V domains shown)
VH: QVQLVQSGGGVVQPGESLRLSCSGSGFTFNNYIMHWVRQAPGQGLDYVSGIGSDGRNTNYGDSVKGRFTISRDNSKDTLYLQMTSLRAEDTAFYYCVKGLDVLRFLDLSTPSGERLDAFDIWGQGTMVTVSS
VL: DIVMTQSPSFLSASVGDRVTITCRASQGISNYLAWYQQKPGKAPHLLIYAASTLQSGVPSRFSGSGSGTEFTLTISSLQPEDFATYYCQQLNSYPLFTFGPGTKVDIE
binds: all assays above
